Publication PMC10403546 (Nature Communications, 2023)

Assays:
Assay in all cases: SPR
Conditions in all cases: both partners purified
[1] = molecular target: T1, BG505 SOSIP-His (subtype A Env trimer) (HIV-1 BG505 (subtype A), UniProt Q2N0S6, stabilised)
T1 construct: copies: 3 + 3

[2] = molecular target: T2, X18 SOSIP-His (CRF01_AE Env trimer in SOSIP design) (HIV-1 BJOX018000.e12 (X18, CRF01_AE), UniProt A0A0E3EAY4, stabilised)
T2 construct: copies: 3 + 3

[3] = molecular target: T3, X16 SOSIP-His (CRF07_BC Env trimer in SOSIP design) (HIV-1 BJOX016000.e15 (X16, CRF07_BC), UniProt A0A0E3EAD6, stabilised)
T3 construct: copies: 3 + 3

[4] = molecular target: T4, X18 UFO (CRF01_AE Env), wild type, for SPR (HIV-1 BJOX018000.e12 (X18, CRF01_AE), stabilised)
T4 construct: source: FreeStyle 293F, transient transfection (PEI), purified (GNL resin, SEC)

[5] = molecular target: T5, Q769 UFO (subtype A Env of Q769_d22) (HIV-1 Q769_d22 (subtype A), UniProt Q8JDJ1, stabilised)
T5 construct: source: FreeStyle 293F, transient transfection (PEI), purified (GNL resin, SEC)

B1: bNAb 8ANC195 Fab (for SPR) (Fab, V domains shown)
VH: QIHLVQSGTEVKKPGSSVTVSCKAYGVNTFGLYAVNWVRQAPGQSLEYIGQIWRWKSSASHHFRGRVLISAVDLTGSSPPISSLEIKDLTSDDTAVYFCTTTSTYDKWSGLHHDGVMAFSSWGQGTLISVSA
VL: DIQMTQSPSTLSASIGDTVRISCRASQSITGNWVAWYQQRPGKAPRLLIYRGAALLGGVPSRFSGSAAGTDFTLTIGNLQAEDFGTFYCQQYDTYPGTFGQGTKVEVK
B1: binds [1]; binds [2]; binds [3].

B2: bNAb F6 Fab (for SPR) (Fab, V domains shown)
VH: QVQLQQWGTGLLKPSETLSLTCAVYGVSLRGYYWTWIRQSPKKGLEWIGEIDEIGRTKYSQSLRSRATLSIDTSKKQFSLRLTSVTAADMATYYCARWRLMMVDEVTRHGMDVWSQGTMVTVSS
VL: DIVMTQSPLSLSVAPGEAASISCRSTQSLLNRNGDNYLEWYLRRPGRSPQLLIYLGSERALGVPDRFSGSGSGRDFTLKISRVEAQDVGTYYCLQTRQGAFTFGQGTKLEIK
B2 was tested, and the Kd [4] was 41 pM and the binding result [5] was “binds”.
